Source: IntAct's records for PubMed 11248247

B1: Twist-related protein 1 (Homo sapiens), Q15672 (parent)
chain: MMQDVSSSPVSPADDSLSNSEEEPDRQQPPSGKRGGRKRRSSRRSAGGGAGPGGAAGGGVGGGDEPGSPAQGKRGKKSAGCGGGGGAGGGGGSSSGGGSPQSYEELQTQRVMANVRERQRTQSLNEAFAALRKIIPTLPSDKLSKIQTLKLAARYIDFLYQVLQSDELDSKMASCSYVAHERLSYAFSVWRMEGAWSMSASH

Variants of: B1
Settings: with TCF3, P15923-1
Chain of TCF3, P15923-1 (P15923 whole entry): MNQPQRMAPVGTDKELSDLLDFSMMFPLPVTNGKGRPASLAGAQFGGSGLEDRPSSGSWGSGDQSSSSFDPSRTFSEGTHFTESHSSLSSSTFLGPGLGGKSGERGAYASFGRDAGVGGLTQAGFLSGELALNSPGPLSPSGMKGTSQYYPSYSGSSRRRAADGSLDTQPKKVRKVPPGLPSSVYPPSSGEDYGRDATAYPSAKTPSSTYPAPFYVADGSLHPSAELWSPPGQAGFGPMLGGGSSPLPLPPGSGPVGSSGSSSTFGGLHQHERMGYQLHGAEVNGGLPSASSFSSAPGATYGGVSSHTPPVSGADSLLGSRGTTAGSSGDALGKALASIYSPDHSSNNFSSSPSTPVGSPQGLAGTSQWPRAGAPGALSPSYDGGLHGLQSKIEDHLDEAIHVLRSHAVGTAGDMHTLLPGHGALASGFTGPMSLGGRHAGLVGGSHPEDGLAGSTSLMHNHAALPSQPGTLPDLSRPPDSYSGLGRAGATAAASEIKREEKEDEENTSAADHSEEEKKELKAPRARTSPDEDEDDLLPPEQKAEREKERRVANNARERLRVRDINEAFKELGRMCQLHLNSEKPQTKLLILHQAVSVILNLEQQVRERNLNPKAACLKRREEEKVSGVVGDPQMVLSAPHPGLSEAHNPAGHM

effect of a mutation on the interaction	Variant
with no effect	R118C
with no effect	S144R
decreasing interaction strength	K145E

Variants of: B1
Settings: with TCF3, P15923-1
Remark: another data set of the same source

effect of a mutation on the interaction	Variant
with no effect	K145E
